Reference: patent US7262024

B1: New 139 (protein)
chain: MQITYTDDEIQVAKLAGKYTTEDGYIFDGGWIKKDSLSEAERAAAQAYAKEKGLTPPSTDHQDSGNTEAKGAEAIYNRVKAAKKVPLDRMPYNLQYTVEVKNGSLIIPHHDHYHNIKFEWFDEGLYEAPKGYSLEDLLATVKYYVEGGNASDHVRKNKADQDSKPDEDKEHDEVSEPTHPESDEKENHAGLNPSADNLYKPSTDTEETEEEAEDTTDEAEIPGGPSIRQNAMETLTGLKSSLLLGTKDNNTISAEVDSLLALLKESQPAPIQ
B2: VP56 (protein)
chain: MQIGQPTLPNNSLATPSPSLPINPGTSHEKHEEDGYGFDANRIIAEDESGFVMSHGDSNHYFFKKDLTEEQIKAAQKHLEEVKTSHNGLDSLSSHEQDYPGNAKEMKDLDKKIEEKIAGIMKQYGVKRESIVVNKEKNAIIYPSGDHHHADPIDEHKPVGIGHSHSNYELFKPEEGVAKKEGNKVYTGEELTNVVNLLKNSTFNNQNFTLANGQKRVSFSFPPELEKKLGINMLVKLITPDGKVLEKVSGKVFGEGVGNIANFELDQPYLPGQTFKYTIASKDYPEVSYDGTFTVPTSLAYKMASQTIFYPFHAGDTYLRVNPQFAVPKGTDALVRVFDEFHGNAYLENNYKVGEIKLPIPKLNQGTTRTAGNKIPVTFMANAYLDNQSTYIVEVPILEKENQTDKPSILPQFKRNKAQENSKLDEKVEEPKTSEKVEKEKLSETGNSTSNSTLEEVPTVDPVQEKVAKFAESYGMKLENVLFNMDGTIELYLPSGEVIKKNMADFTGEAPQGNGENKPSENGKVSTGTVENQPTENKPADSLPEAPNEKPVKPENSTDNGMLNPEGNVGSDPMLDPALEEAPAVDPVQEKLEKFTASYGLGLDSVIFNMDGTIELRLPSGEVIKKNLSDFIA
B3: VP147 (protein)
chain: MQITYTDDEIQVAKLAGKYTTEDGYIFDGGWIKKDSLSEAERAAAQAYAKEKGLTPPSTDHQDSGNTEAKGAEAIYNRVKAAKKVPLDRMPYNLQYTVEVKNGSLIIPHHDHYHNIKFEWFDEGLYEAPKGYSLEDLLATVKYYVEGGNASDHVRKNKADQDSKPDEDKEHDEVSEPTHPESDEKENHAGLNPSADNLYKPSTDTEETEEEAEDTTDEAEIPGGPSIRQNAMETLTGLKSSLLLGTKDNNTISAEVDSLLALLKESQPAPIQGGQIGQPTLPNNSLATPSPSLPINPGTSHEKHEEDGYGFDANRIIAEDESGFVMSHGDSNHYFFKKDLTEEQIKAAQKHLEEVKTSHNGLDSLSSHEQDYPGNAKEMKDLDKKIEEKIAGIMKQYGVKRESIVVNKEKNAIIYPSGDHHHADPIDEHKPVGIGHSHSNYELFKPEEGVAKKEGNKVYTGEELTNVVNLLKNSTFNNQNFTLANGQKRVSFSFPPELEKKLGINMLVKLITPDGKVLEKVSGKVFGEGVGNIANFELDQPYLPGQTFKYTIASKDYPEVSYDGTFTVPTSLAYKMASQTIFYPFHAGDTYLRVNPQFAVPKGTDALVRVFDEFHGNAYLENNYKVGEIKLPIPKLNQGTTRTAGNKIPVTFMANAYLDNQSTYIVEVPILEKENQTDKPSILPQFKRNKAQENSKLDEKVEEPKTSEKVEKEKLSETGNSTSNSTLEEVPTVDPVQEKVAKFAESYGMKLENVLFNMDGTIELYLPSGEVIKKNMADFTGEAPQGNGENKPSENGKVSTGTVENQPTENKPADSLPEAPNEKPVKPENSTDNGMLNPEGNVGSDPMLDPALEEAPAVDPVQEKLEKFTASYGLGLDSVIFNMDGTIELRLPSGEVIKKNLSDFIA

Assays:
[1] = target: Mouse serum rVP56-AlOH (mouse 1); assay: flow cytometry, inhibition of surface labeling by serum rVP56-AlOH (mouse 1)
[2] = target: Mouse serum rVP56-QuilA (mouse 1); assay: flow cytometry, inhibition of surface labeling by serum rVP56-QuilA (mouse 1)
[3] = target: Mouse serum rVP56-AlOH (mouse 2); assay: flow cytometry, inhibition of surface labeling by serum rVP56-AlOH (mouse 2)
[4] = target: Mouse serum rVP147-AlOH (mouse 2); assay: flow cytometry, inhibition of surface labeling by serum rVP147-AlOH (mouse 2)
[5] = target: Mouse serum rVP147-QuilA (mouse 1); assay: flow cytometry, inhibition of surface labeling by serum rVP147-QuilA (mouse 1)
[6] = target: Mouse serum rVP147-QuilA (mouse 2); assay: flow cytometry, inhibition of surface labeling by serum rVP147-QuilA (mouse 2)
[7] = target: Mouse serum rVP147-AlOH (mouse 1); assay: flow cytometry, inhibition of surface labeling by serum rVP147-AlOH (mouse 1)
[8] = target: Mouse serum rVP56-QuilA (mouse 2); assay: flow cytometry, inhibition of surface labeling by serum rVP56-QuilA (mouse 2)

Row | Binder | % inhibition [1] [%] | % inhibition [2] [%] | % inhibition [3] [%] | % inhibition [4] [%] | % inhibition [5] [%] | % inhibition [6] [%] | % inhibition [7] [%] | % inhibition [8] [%]
1 | B1 | 0 | 0.2 | 0 | 49.7 | 41.3 | 40.7 | 53.8 | –
2 | B2 | 99.7 | 99.7 | 100 | 61.6 | 68.1 | 74.1 | 50 | 99.8
3 | B3 | 99.6 | 99.5 | 100 | 99.8 | 99.7 | 99.6 | 99.7 | 99.3
